B1: KCNK9 (parent)
chain: DVPDLQSVCSCTCYRSQDYGGRSV

Variants of: B1
Test: protein stability index of a GFP-peptide fusion (GPS, HEK-293T) (PSI 1-6); higher = more stable
Conditions: c terminus: a fixed tail appended
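Also: lentivirally expressed fusions sorted by FACS into six bins by GFP to DsRed ratio, PSI derived from sequencing read proportions per bin multiplied by bin number.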

Which protein stability index does the source give for DVPDLQSVCSCTCYRSQDYKGRSV [G20K] here?
Its protein stability index is 2.37.

Which protein stability index does the source give for DVPDLQSVCSCTCYRSQDYSGRSV [G20S] here?
The protein stability index was 2.07.

With DVPDLQSVCSCTCYRSQDYEGRSV [G20E] as the variant, how does the protein stability index read?
Its protein stability index is 1.97.

With DVPDLQSVCSCTCYRSQDYNGRSV [G20N] as the variant, how does the protein stability index read?
Its protein stability index is 2.03.

For DVPDLQSVCSCTCYRSQDYPGRSV [G20P], which protein stability index is on record?
Its protein stability index is 2.03.

With DVPDLQSVCSCTCYRSQDYHGRSV [G20H] as the variant, how does the protein stability index read?
Its protein stability index is 2.88.

With DVPDLQSVCSCTCYRSQDYCGRSV [G20C] as the variant, how does the protein stability index read?
Its protein stability index is 2.26.

For DVPDLQSVCSCTCYRSQDYLGRSV [G20L], which protein stability index is on record?
Its protein stability index is 1.67.

Which protein stability index does the source give for DVPDLQSVCSCTCYRSQDYQGRSV [G20Q] here?
Its protein stability index is 1.94.

For DVPDLQSVCSCTCYRSQDYDGRSV [G20D], which protein stability index is on record?
Its protein stability index is 2.88.

Which protein stability index does the source give for DVPDLQSVCSCTCYRSQDYFGRSV [G20F] here?
Its protein stability index is 1.35.

For DVPDLQSVCSCTCYRSQDYIGRSV [G20I], which protein stability index is on record?
The protein stability index was 2.15.

For DVPDLQSVCSCTCYRSQDYAGRSV [G20A], which protein stability index is on record?
The protein stability index was 2.24.

Which protein stability index does the source give for DVPDLQSVCSCTCYRSQEYGGRSV [D18E] here?
Its protein stability index is 1.21.

Which protein stability index does the source give for DVPDLQSVCSCTCYRSQNYGGRSV [D18N] here?
The protein stability index was 2.08.

With DVPDLQSVCSCTCYRSQHYGGRSV [D18H] as the variant, how does the protein stability index read?
Its protein stability index is 2.85.

For DVPDLQSVCSCTCYRSQFYGGRSV [D18F], which protein stability index is on record?
The protein stability index was 1.2.

With DVPDLQSVCSCTCYRSQCYGGRSV [D18C] as the variant, how does the protein stability index read?
Its protein stability index is 1.97.

For DVPDLQSVCSCTCYRSQRYGGRSV [D18R], which protein stability index is on record?
Its protein stability index is 1.36.

For DVPDLQSVCSCTCYRSQYYGGRSV [D18Y], which protein stability index is on record?
Its protein stability index is 1.56.

Which protein stability index does the source give for DVPDLQSVCSCTCYRSQLYGGRSV [D18L] here?
The protein stability index was 1.73.

For DVPDLQSVCSCTCYRSQTYGGRSV [D18T], which protein stability index is on record?
The protein stability index was 1.83.

For DVPDLQSVCSCTCYRSQSYGGRSV [D18S], which protein stability index is on record?
The protein stability index was 2.33.

For DVPDLQSVCSCTCYRSQVYGGRSV [D18V], which protein stability index is on record?
The protein stability index was 1.82.

For DVPDLQSVCSCTCYRSQKYGGRSV [D18K], which protein stability index is on record?
Its protein stability index is 1.65.

Which protein stability index does the source give for DVPDLQSVCSCTCYRSQPYGGRSV [D18P] here?
The protein stability index was 1.67.

Which protein stability index does the source give for DVPDLQSVCSCTCYRSQMYGGRSV [D18M] here?
Its protein stability index is 1.63.

With DVPDLQSVCSCTCYRSQQYGGRSV [D18Q] as the variant, how does the protein stability index read?
The protein stability index was 1.51.

Which protein stability index does the source give for DVPDLQSVCSCTCYRSQWYGGRSV [D18W] here?
Its protein stability index is 1.61.

For DVPDLQSVCSCTCYTSQDYGGRSV [R15T], which protein stability index is on record?
The protein stability index was 2.2.

With DVPDLQSVCSCTCYYSQDYGGRSV [R15Y] as the variant, how does the protein stability index read?
Its protein stability index is 1.98.

With DVPDLQSVCSCTCYGSQDYGGRSV [R15G] as the variant, how does the protein stability index read?
Its protein stability index is 2.23.

With DVPDLQSVCSCTCYWSQDYGGRSV [R15W] as the variant, how does the protein stability index read?
The protein stability index was 2.21.

With DVPDLQSVCSCTCYPSQDYGGRSV [R15P] as the variant, how does the protein stability index read?
Its protein stability index is 2.05.

With DVPDLQSVCSCTCYHSQDYGGRSV [R15H] as the variant, how does the protein stability index read?
The protein stability index was 2.68.

With DVPDLQSVCSCTCYKSQDYGGRSV [R15K] as the variant, how does the protein stability index read?
The protein stability index was 2.08.

With DVPDLQSVCSCTCYLSQDYGGRSV [R15L] as the variant, how does the protein stability index read?
Its protein stability index is 1.49.

With DVPDLQSVCSCTCYQSQDYGGRSV [R15Q] as the variant, how does the protein stability index read?
Its protein stability index is 1.68.

With DVPDLQSVCSCTCYVSQDYGGRSV [R15V] as the variant, how does the protein stability index read?
Its protein stability index is 1.28.

With DVPDLQSVCSCTCYSSQDYGGRSV [R15S] as the variant, how does the protein stability index read?
The protein stability index was 2.48.

Which protein stability index does the source give for DVPDLQSVCSCTCYESQDYGGRSV [R15E] here?
Its protein stability index is 2.52.

Which protein stability index does the source give for DVPDLQSVCSCTCYFSQDYGGRSV [R15F] here?
Its protein stability index is 1.78.

For DVPDLQSVCSCTCYDSQDYGGRSV [R15D], which protein stability index is on record?
Its protein stability index is 3.58.

For DVPDLQSVCSCTCYRSQDKGGRSV [Y19K], which protein stability index is on record?
Its protein stability index is 2.1.

For DVPDLQSVCSCTCYRSQDTGGRSV [Y19T], which protein stability index is on record?
The protein stability index was 2.64.

For DVPDLQSVCSCTCYRSQDCGGRSV [Y19C], which protein stability index is on record?
Its protein stability index is 1.88.

For DVPDLQSVCSCTCYRSQDQGGRSV [Y19Q], which protein stability index is on record?
The protein stability index was 2.44.

For DVPDLQSVCSCTCYRSQDFGGRSV [Y19F], which protein stability index is on record?
The protein stability index was 2.25.

Which protein stability index does the source give for DVPDLQSVCSCTCYRSQDHGGRSV [Y19H] here?
Its protein stability index is 2.27.

With DVPDLQSVCSCTCYRSQDVGGRSV [Y19V] as the variant, how does the protein stability index read?
The protein stability index was 1.66.

For DVPDLQSVCSCTCYRSQDAGGRSV [Y19A], which protein stability index is on record?
Its protein stability index is 1.88.

Which protein stability index does the source give for DVPDLQSVCSCTCYRSQDIGGRSV [Y19I] here?
The protein stability index was 2.18.

For DVPDLQSVCSCTCYRSQDRGGRSV [Y19R], which protein stability index is on record?
Its protein stability index is 2.08.

Which protein stability index does the source give for DVPDLQSVCSCTCYRSQDNGGRSV [Y19N] here?
Its protein stability index is 1.71.

For DVPDLQSVCSCTCYRSQDPGGRSV [Y19P], which protein stability index is on record?
Its protein stability index is 1.86.

For DVPDLQSVCSCTCYRSQDMGGRSV [Y19M], which protein stability index is on record?
The protein stability index was 1.83.

Which protein stability index does the source give for DVPDLQSVCSCTCYRSQDDGGRSV [Y19D] here?
The protein stability index was 2.41.

Which protein stability index does the source give for DVPDLQSVCSCTCYRSQDEGGRSV [Y19E] here?
The protein stability index was 2.02.

With DVPDLQSVCSCTCYRSQDGGGRSV [Y19G] as the variant, how does the protein stability index read?
The protein stability index was 1.58.

Which protein stability index does the source give for DVPDLQSVCSCTCYRSQDSGGRSV [Y19S] here?
The protein stability index was 1.81.

Which protein stability index does the source give for DVPDLQSVCSCTCYRSDDYGGRSV [Q17D] here?
The protein stability index was 2.15.

With DVPDLQSVCSCTCYRSMDYGGRSV [Q17M] as the variant, how does the protein stability index read?
Its protein stability index is 2.76.

For DVPDLQSVCSCTCYRSRDYGGRSV [Q17R], which protein stability index is on record?
The protein stability index was 2.58.

With DVPDLQSVCSCTCYRSCDYGGRSV [Q17C] as the variant, how does the protein stability index read?
The protein stability index was 2.31.

Which protein stability index does the source give for DVPDLQSVCSCTCYRSTDYGGRSV [Q17T] here?
Its protein stability index is 2.39.

With DVPDLQSVCSCTCYRSIDYGGRSV [Q17I] as the variant, how does the protein stability index read?
The protein stability index was 1.87.

For DVPDLQSVCSCTCYRSKDYGGRSV [Q17K], which protein stability index is on record?
Its protein stability index is 1.86.

For DVPDLQSVCSCTCYRSADYGGRSV [Q17A], which protein stability index is on record?
Its protein stability index is 1.56.

For DVPDLQSVCSCTCYRSHDYGGRSV [Q17H], which protein stability index is on record?
The protein stability index was 2.14.

Which protein stability index does the source give for DVPDLQSVCSCTCYRSGDYGGRSV [Q17G] here?
The protein stability index was 2.21.

Which protein stability index does the source give for DVPDLQSVCSCTCYRSWDYGGRSV [Q17W] here?
Its protein stability index is 2.44.

Which protein stability index does the source give for DVPDLQSVCSCTCYRSPDYGGRSV [Q17P] here?
Its protein stability index is 1.27.

With DVPDLQSVCSCTCYRSSDYGGRSV [Q17S] as the variant, how does the protein stability index read?
Its protein stability index is 2.41.

For DVPDLQSVCSCTCYRSNDYGGRSV [Q17N], which protein stability index is on record?
The protein stability index was 1.51.

With DVPDLQSVCSCTCYRSLDYGGRSV [Q17L] as the variant, how does the protein stability index read?
The protein stability index was 3.13.

For DVPDLQSVCSCTCYRSFDYGGRSV [Q17F], which protein stability index is on record?
The protein stability index was 1.95.

For DVPDLQSVCSCTCYRSEDYGGRSV [Q17E], which protein stability index is on record?
The protein stability index was 2.07.

For DVPDLQSVCSCTCYRRQDYGGRSV [S16R], which protein stability index is on record?
Its protein stability index is 1.65.

Which protein stability index does the source give for DVPDLQSVCSCTCYRYQDYGGRSV [S16Y] here?
The protein stability index was 2.31.

Which protein stability index does the source give for DVPDLQSVCSCTCYRPQDYGGRSV [S16P] here?
Its protein stability index is 3.56.

For DVPDLQSVCSCTCYRGQDYGGRSV [S16G], which protein stability index is on record?
The protein stability index was 1.07.

With DVPDLQSVCSCTCYRCQDYGGRSV [S16C] as the variant, how does the protein stability index read?
The protein stability index was 2.5.

Which protein stability index does the source give for DVPDLQSVCSCTCYRHQDYGGRSV [S16H] here?
Its protein stability index is 1.8.

Which protein stability index does the source give for DVPDLQSVCSCTCYREQDYGGRSV [S16E] here?
Its protein stability index is 1.79.

Which protein stability index does the source give for DVPDLQSVCSCTCYRKQDYGGRSV [S16K] here?
The protein stability index was 2.08.

For DVPDLQSVCSCTCYRIQDYGGRSV [S16I], which protein stability index is on record?
The protein stability index was 2.85.

With DVPDLQSVCSCTCYRNQDYGGRSV [S16N] as the variant, how does the protein stability index read?
Its protein stability index is 2.1.

For DVPDLQSVCSCTCYRAQDYGGRSV [S16A], which protein stability index is on record?
The protein stability index was 1.2.

Which protein stability index does the source give for DVPDLQSVCSCTCYRDQDYGGRSV [S16D] here?
The protein stability index was 1.85.

With DVPDLQSVCSCTCYRMQDYGGRSV [S16M] as the variant, how does the protein stability index read?
The protein stability index was 2.21.

With DVPDLQSVCSCTCYRTQDYGGRSV [S16T] as the variant, how does the protein stability index read?
Its protein stability index is 2.18.

With DVPDLQSVCSCTCYRVQDYGGRSV [S16V] as the variant, how does the protein stability index read?
Its protein stability index is 1.03.

For DVPDLQSVCSCTCYRLQDYGGRSV [S16L], which protein stability index is on record?
Its protein stability index is 2.87.

For DVPDLQSVCSCTCYRFQDYGGRSV [S16F], which protein stability index is on record?
The protein stability index was 2.78.

Source: the supplement of paper PMC10567573
